Results: paper PMC4589512 (Nature cell biology, 2015)

Biological target: CGG-CC1 (human, UniProt Q13586 233-343)
Assay: SPR

Sequence of CGG-CC1 (Q13586 233-343): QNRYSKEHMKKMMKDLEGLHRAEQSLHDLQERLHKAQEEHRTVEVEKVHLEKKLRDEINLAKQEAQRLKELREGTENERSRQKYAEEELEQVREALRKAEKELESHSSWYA

B1: STIMATE-CT (analyte of the SPR) (domain or fragment)
chain: DNFLMRKGKTKAKLEERGANQDSRNGSKVRYRRAASHEESESEILISADDEMEESDVEEDLRRLTPLKPVKKKKHRFGLPV
Kd: 8.9 ± 0.7 µM
